{"source": "patent US20150268247A1", "about": "(UNIVERSITY OF ROCHESTER, published 2015)", "binders": {"B1": {"name": "CBFβ alone (human core-binding factor β subunit isoform 2) (other)", "chain": "MGHHHHHHLEVLFQGPPRVVPDQRSKFENEEFFRKLSRECEIKYTGFRDRPHEERQARFQNACRDGRSEIAFVATGTNLSLQFFPASWQGEQRQTPSREYVDLEREAGKVYLKAPMILNGVCVIWKGWIDLQRLDGMGCLEFDEERAQQEDALAQQAFEEARRRTREFEDRDRSHREEMEVRVSQLLAVTGKKTTRP"}, "B2": {"name": "Cul5(N), human Cullin5 residues 2-384 with V341R and L345D mutations (post 3C cleavage) (other)", "chain": "GPMHMGGSTSNLLKNKGSLQFEDKWDFMRPIVLKLLRQESVTKQQWFDLFSDVHAVCLWDDKGPAKIHQALKEDILEFIKQAQARVLSHQDDTALLKAYIVEWRKFFTQCDILPKPFCQLEITLMGKQGSNKKSNVEDSIVRKLMLDTWNESIFSNIKNRLQDSAMKLVHAERLGEAFDSQLVIGVRESYVNLCSNPEDKLQIYRDNFEKAYLDSTERFYRTQAPSYLQQNGVQNYMKYADAKLKEEEKRALRYLETRRECNSVEALMECCVNALVTSFKETILAECQGMIKRNETEKLHLMFSLMDKVPNGIEPMLKDLEEHIISAGLADMVAAAETITTDSEKYREQLDTLFNRFSKLVKEAFQDDPRFLTARDKAYKAVVNDATIFK", "notes": "also called Cul5(2-384)"}}, "key": {"[1]": {"target": "T1, VifC/EloB/C ternary complex (HIV-1 HXB2 Vif(95-192) / ElonginB 1-118 / ElonginC 17-112) (HIV-1 HXB2; human, UniProt P69720 95-192; Q15370 2-118; Q15369 18-112)", "T1 sequence (P69720 95-192, tags left off, chain 1 of 3)": "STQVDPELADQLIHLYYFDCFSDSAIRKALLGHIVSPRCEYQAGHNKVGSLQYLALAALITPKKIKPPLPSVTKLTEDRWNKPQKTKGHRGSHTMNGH", "T1 sequence (Q15370 2-118, tags left off, chain 2 of 3)": "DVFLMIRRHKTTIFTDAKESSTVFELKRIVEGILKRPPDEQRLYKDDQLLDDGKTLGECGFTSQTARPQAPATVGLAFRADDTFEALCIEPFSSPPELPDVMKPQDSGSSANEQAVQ", "T1 sequence (Q15369 18-112, tags left off, chain 3 of 3)": "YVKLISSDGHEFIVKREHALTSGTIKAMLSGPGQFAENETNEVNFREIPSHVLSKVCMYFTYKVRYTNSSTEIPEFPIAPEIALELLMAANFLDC", "assay": "ITC at 303.15 K in ITC Buffer A, CBFβ titrated to VifC/EloB/C"}, "[2]": {"target": "T2, Vif/EloB/C/CBFβ quaternary complex (full-length HIV-1 HXB2 Vif(1-192) / ElonginB 1-118 / ElonginC 17 (HIV-1 HXB2; human, UniProt P69720 2-192; Q15370 2-118; P83940 18-112; Q13951 2-182)", "T2 sequence (P69720 2-192, tags left off, chain 1 of 3)": "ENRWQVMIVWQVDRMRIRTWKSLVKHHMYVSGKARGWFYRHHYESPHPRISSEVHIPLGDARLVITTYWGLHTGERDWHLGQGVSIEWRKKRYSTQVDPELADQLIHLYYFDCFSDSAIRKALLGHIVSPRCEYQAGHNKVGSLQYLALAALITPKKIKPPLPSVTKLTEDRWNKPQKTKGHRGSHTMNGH", "T2 sequence (Q15370 2-118, tags left off, chain 2 of 3)": "as the sequence (Q15370 2-118, tags left off, chain 2 of 3) above", "T2 sequence (P83940 18-112, tags left off, chain 3 of 3)": "as the sequence (Q15369 18-112, tags left off, chain 3 of 3) above"}, "[3]": {"target": "T1, VifC/EloB/C ternary complex (HIV-1 HXB2 …)"}, "[4]": {"target": "T2, Vif/EloB/C/CBFβ quaternary complex …", "remark": "listed apart in the source"}, "[5]": {"target": "T2, Vif/EloB/C/CBFβ quaternary complex …", "remark": "listed apart in the source"}, "[6]": {"target": "T1, VifC/EloB/C ternary complex (HIV-1 HXB2 …)", "remark": "listed apart in the source"}, "[7]": {"target": "T1, VifC/EloB/C ternary complex (HIV-1 HXB2 …)", "remark": "listed apart in the source"}, "[8]": {"target": "T1, VifC/EloB/C ternary complex (HIV-1 HXB2 …)", "remark": "listed apart in the source"}, "[9]": {"target": "T1, VifC/EloB/C ternary complex (HIV-1 HXB2 …)", "remark": "listed apart in the source"}, "[10]": {"target": "T2, Vif/EloB/C/CBFβ quaternary complex …", "remark": "listed apart in the source"}, "[11]": {"target": "T2, Vif/EloB/C/CBFβ quaternary complex …", "remark": "listed apart in the source"}, "[12]": {"target": "T2, Vif/EloB/C/CBFβ quaternary complex …", "remark": "listed apart in the source"}, "[13]": {"target": "T1, VifC/EloB/C ternary complex (HIV-1 HXB2 …)", "assay": "ITC at 30 °C, HEPES (ITC buffer A)"}, "[14]": {"target": "T2, Vif/EloB/C/CBFβ quaternary complex …", "assay": "ITC at 30 °C, HEPES (ITC buffer A)"}, "[15]": {"target": "T1, VifC/EloB/C ternary complex (HIV-1 HXB2 …)", "assay": "ITC at 30 °C, phosphate (ITC buffer B)"}, "[16]": {"target": "T2, Vif/EloB/C/CBFβ quaternary complex …", "assay": "ITC at 30 °C, phosphate (ITC buffer B)"}, "[17]": {"target": "T1, VifC/EloB/C ternary complex (HIV-1 HXB2 …)", "assay": "ITC at 30 °C, difference of ΔH between ITC buffers A and B"}, "[18]": {"target": "T2, Vif/EloB/C/CBFβ quaternary complex …", "assay": "ITC at 30 °C, difference of ΔH between ITC buffers A and B"}, "[19]": {"target": "B1", "assay": "ITC at 303.15 K in ITC Buffer A, Cul5(N) titrated to CBFβ alone"}, "[20]": {"target": "T1, VifC/EloB/C ternary complex (HIV-1 HXB2 …)", "assay": "ITC at 303 K, Cul5(N) in syringe, complex in cell, ITC buffer A"}, "[21]": {"target": "T2, Vif/EloB/C/CBFβ quaternary complex …", "assay": "ITC at 303 K, Cul5(N) in syringe, complex in cell, ITC buffer A"}}, "note": "Like-named read-outs stand apart in the source and are kept apart here."}
{"binder": "B1", "values": [{"measurement": "binding result", "setting": "[1]", "result": "no binding"}]}
{"binder": "B2", "values": [{"measurement": "Kd", "setting": "[2]", "result": 5, "unit": "nM"}, {"measurement": "N", "setting": "[3]", "result": 1.03}, {"measurement": "ΔH", "setting": "[3]", "result": -5250}, {"measurement": "ΔS", "setting": "[3]", "result": 12.4}, {"measurement": "N", "setting": "[4]", "result": 1.01}, {"measurement": "ΔH", "setting": "[4]", "result": -8350}, {"measurement": "ΔS", "setting": "[4]", "result": 11.2}, {"measurement": "N", "setting": "[5]", "result": 1.01}, {"measurement": "ΔH", "setting": "[5]", "result": -8350}, {"measurement": "ΔS", "setting": "[5]", "result": 11.2}, {"measurement": "N", "setting": "[6]", "result": 1.03}, {"measurement": "ΔH", "setting": "[6]", "result": -5250}, {"measurement": "ΔS", "setting": "[6]", "result": 12.4}, {"measurement": "N", "setting": "[7]", "result": 0.887}, {"measurement": "ΔH", "setting": "[7]", "result": -2250}, {"measurement": "ΔS", "setting": "[7]", "result": 22.9}, {"measurement": "N", "setting": "[8]", "result": 0.952}, {"measurement": "ΔH", "setting": "[8]", "result": -3750}, {"measurement": "ΔS", "setting": "[8]", "result": 17.4}, {"measurement": "N", "setting": "[9]", "result": 0.948}, {"measurement": "ΔH", "setting": "[9]", "result": -6430}, {"measurement": "ΔS", "setting": "[9]", "result": 7.96}, {"measurement": "ΔH", "setting": "[10]", "result": -3970}, {"measurement": "ΔS", "setting": "[10]", "result": 21.7}, {"measurement": "N", "setting": "[11]", "result": 0.943}, {"measurement": "ΔH", "setting": "[11]", "result": -6310}, {"measurement": "ΔS", "setting": "[11]", "result": 23}, {"measurement": "N", "setting": "[12]", "result": 1}, {"measurement": "ΔH", "setting": "[12]", "result": -10100}, {"measurement": "ΔS", "setting": "[12]", "result": 4.56}, {"measurement": "ΔH", "setting": "[13]", "result": -5.2, "unit": "kcal/mol"}, {"measurement": "ΔH", "setting": "[14]", "result": -9.2, "unit": "kcal/mol"}, {"measurement": "ΔH", "setting": "[15]", "result": -4.4, "unit": "kcal/mol"}, {"measurement": "ΔH", "setting": "[16]", "result": -7.5, "unit": "kcal/mol"}, {"measurement": "ΔΔH (HEPES against phosphate buffer)", "setting": "[17]", "result": 0.8, "unit": "kcal/mol"}, {"measurement": "ΔΔH (HEPES against phosphate buffer)", "setting": "[18]", "result": 1.7, "unit": "kcal/mol"}, {"measurement": "binding result", "setting": "[19]", "result": "no binding"}, {"measurement": "-TΔS", "setting": "[20]", "result": -3.8, "unit": "kcal/mol"}, {"measurement": "Kd", "setting": "[20]", "result": 327, "unit": "nM"}, {"measurement": "ΔG", "setting": "[20]", "result": -9, "unit": "kcal/mol"}, {"measurement": "ΔH", "setting": "[20]", "result": -5.2, "unit": "kcal/mol"}, {"measurement": "-TΔS", "setting": "[21]", "result": -2.8, "unit": "kcal/mol"}, {"measurement": "ΔG", "setting": "[21]", "result": -11.5, "unit": "kcal/mol"}, {"measurement": "ΔH", "setting": "[21]", "result": -8.8, "unit": "kcal/mol"}]}
